What was measured:
[1] = system: T1, C-terminal domain of the retinoblastoma protein (Rb (771-928))
T1 sequence: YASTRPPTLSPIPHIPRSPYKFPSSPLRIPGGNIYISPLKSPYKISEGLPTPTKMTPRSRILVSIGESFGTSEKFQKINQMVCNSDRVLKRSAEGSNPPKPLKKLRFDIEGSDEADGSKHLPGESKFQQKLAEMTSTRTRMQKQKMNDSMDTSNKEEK

[2] = system: T2, Transactivation domain of FoxM1 (FoxM1 (526-748))
T2 sequence: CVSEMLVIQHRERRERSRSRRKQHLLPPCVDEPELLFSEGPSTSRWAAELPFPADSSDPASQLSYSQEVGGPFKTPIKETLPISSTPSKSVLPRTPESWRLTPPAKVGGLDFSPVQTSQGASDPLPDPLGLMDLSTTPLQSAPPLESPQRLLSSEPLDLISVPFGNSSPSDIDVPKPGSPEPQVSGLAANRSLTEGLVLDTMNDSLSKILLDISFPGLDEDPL

Sequence of Full-length histone H1 (chain, as listed by the source): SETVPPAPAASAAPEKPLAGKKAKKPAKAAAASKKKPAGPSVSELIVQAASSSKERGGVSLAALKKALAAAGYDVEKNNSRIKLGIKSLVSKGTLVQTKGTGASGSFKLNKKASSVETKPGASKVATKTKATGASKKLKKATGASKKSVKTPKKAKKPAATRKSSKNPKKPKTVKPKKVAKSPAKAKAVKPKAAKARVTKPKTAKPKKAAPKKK

Substance	phosphorylation activity (32P-ATP labeling of substrate) [1]	phosphorylation activity (32P-ATP labeling of substrate) (Full-length histone H1)	phosphorylation activity (32P-ATP labeling of substrate) [2]
Wild-type p27-Cdk4-CycD1 trimeric complex (vi) with phosphorylated p27 (Cdk4 variant having T172E substitution)	had phosphorylation activity toward all substrates	had phosphorylation activity toward all substrates	had phosphorylation activity toward all substrates
Wild-type p27-Cdk4-CycD1 trimeric complex (v) with phosphorylated p27 (wild-type Cdk4)	had phosphorylation activity toward all substrates	had phosphorylation activity toward all substrates	had phosphorylation activity toward all substrates
